Among the data in US20140271457A1 (AbbVie / Abbott, published 2014) are Kd, koff and kon values, retold here.

This test concerns the target Recombinant Human IL-13 (human, UniProt P35225 35-146, limits assumed). The experiment in a line: Biacore SPR. As for the experimental part:
The BIACORE assay (GE, Healthcare Piscataway, N.J.) determined the affinity of antibodies or DVD-Ig with kinetic measurements of on-rate and off-rate constants. Binding of antibodies or DVD-Ig proteins to a target antigen (for example, a purified recombinant target antigen) was determined by surface plasmon resonance-based measurements with a Biacore T200 using running HBS-EP+buffer from GE Healthcare at 25° C. All chemicals were obtained from GE Healthcare or otherwise from a different source as described in the text. For example, approximately 5000 RU of goat anti-mouse IgG, (Fcγ), fragment specific polyclonal antibody (Pierce Biotechnology Inc, Rockford, Ill.) diluted in 10 mM sodium acetate (pH 4.5) was directly immobilized across a CM5 research grade biosensor chip using a standard amine coupling kit according to manufacturer's instructions. Unreacted moieties on the biosensor surface were blocked with ethanolamine. Modified carboxymethyl dextran surface in flowcell 1 was used as a reference surface. Rate constants were derived by making kinetic binding measurements at different antigen concentrations ranging from 0.8-100 nM. Binding was recorded as a function of time and kinetic rate constants were calculated. In this assay, association rate was evaluated for 5 min and dissociation was monitored for 10 min. For kinetic screening analysis, rate equations derived from the 1:1 binding model were fitted simultaneously to association and dissociation phases of all injections (using global fit analysis with Rmax fit locally to account for capture variations) with the use of Biaevaluation software. Purified antibodies or DVD-Ig proteins were diluted in HEPES-buffered saline for capture across goat anti-mouse IgG specific reaction surfaces. Antibodies or DVD-Ig proteins to be captured as a ligand were injected over reaction matrices at a flow rate of 5 μl/minute. The association and dissociation rate constants, kₒₙ (M⁻¹ s⁻¹) and koff (s⁻¹) were determined under a continuous flow rate of 50 μl/minute. Rate constants were derived by making kinetic binding measurements at different antigen concentrations ranging from 0.8-100 nM. Binding was recorded as a function of time and kinetic rate constants were calculated. In this assay, association rate was evaluated for 5 min and dissociation was monitored for 10 min.
(In general: SPR reads the build-up and loss of mass on a sensor chip optically.)

Changes are numbered by the printed parent chain.

Sequence of Recombinant Human IL-13 (P35225 35-146 limits assumed): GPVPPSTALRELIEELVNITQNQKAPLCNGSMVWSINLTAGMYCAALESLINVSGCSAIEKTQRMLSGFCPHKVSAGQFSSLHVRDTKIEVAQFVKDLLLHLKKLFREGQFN

B1: AB399 (antibody, V domains shown)
VH: EVQLVQSGAEVKKPGASVKVSCKASGYTFTSYWMHWVRQAPGQGLEWIGNINPKGGSNIYNEKFQGRVTMTRDTSISTAYMELSRLRSDDTAVYYCARLDYFGDSFDLWGQGTTVTVSS
VL: DIQMTQSPSSLSASVGDRVTITCRASQGIRNYLNWYQQKPGKAPKLLIYYASNLEVGVPSRFSGSGSGTDYTLTISSLQPEDFATYYCQQDNRFPYTFGGGTKVEIKR
notes: parent antibody
One may read the Kd as the equilibrium constant for the complex coming apart. A word on the koff: it is the rate constant with which the complex falls apart. Broadly, the kon is the rate constant with which the complex forms. Regarding B1, the Kd worked out at 0.019 nM, the koff came out at 6.4e-05 s⁻¹ and the kon stood at 3.4e+06 M⁻¹ s⁻¹.

B2: AB398 (antibody, V domains shown)
VH: EVQLVQSGAEVKKPGASVKVSCKASGYTFTTYGVSWVRQAPGQGLEWMGEIYPGNYNTYYNEKFRGRVTMTTDTSTSTAYMELRSLRSDDTAVYYCARWRTSYFSDYGYFDYWGQGTTVTVSS
VL: DVVMTQSPLSLPVTLGQPASISCRSSQSLVHSHGNTYLHWYQQRPGQSPRLLIYTVSNRFSGVPDRFSGSGSGTDFTLKISRVEAEDVGVYYCSQSTHVPYTFGGGTKVEIKR
notes: parent antibody
As for B2, the Kd was 0.045 nM, the koff is 2.8e-05 s⁻¹ and the kon turned out to be 630000 M⁻¹ s⁻¹.

B3: AB397 (antibody, V domains shown)
VH: EVTLRESGPGLVKPTQTLTLTCTLYGFSLSTSDMGVDWIRQPPGKGLEWLAHIWWDDVKRYNPALKSRLTISKDTSKNQVVLKLTSVDPVDTATYYCARTVSSGYIYYAMDYWGQGTLVTVSS
VL: DIQMTQSPSSLSASVGDRVTISCRASQDIRNYLNWYQQKPGKAPKLLIFYTSKLHSGVPSRFSGSGSGTDYTLTISSLQPEDIATYYCQQGLTPPLTFGGGTKVEIKR
notes: parent antibody
In the case of B3, the equilibrium dissociation constant (Kd) amounted to 0.13 nM, the koff was found to be 0.00012 s⁻¹ and the kon amounted to 920000 M⁻¹ s⁻¹.

B4: DVD2691 (bispecific antibody, IgG1)
VH: EVTLRESGPGLVKPTQTLTLTCTLYGFSLSTSDMGVDWIRQPPGKGLEWLAHIWWDDVKRYNPALKSRLTISKDTSKNQVVLKLTSVDPVDTATYYCARTVSSGYIYYAMDYWGQGTLVTVSSASTKGPEVQLVESGGGLVQPGGSLRLSCAASGFTFSNYGVTWVRQAPGKGLEWVSMIWADGSTHYASSVKGRFTISRDNSKNTLYLQMNSLRAEDTAVYYCAREWQHGPVAYWGQGTLVTVSS
VL: DIQMTQSPSSLSASVGDRVTISCRASQDIRNYLNWYQQKPGKAPKLLIFYTSKLHSGVPSRFSGSGSGTDYTLTISSLQPEDIATYYCQQGLTPPLTFGGGTKVEIKRTVAAPSVFIFPPDIQMTQSPSSLSASVGDRVTITCRASQLVSSAVAWYQQKPGKAPKLLIYWASARHTGVPSRFSGSGSGTDFTLTISSLQPEDFATYYCQQHYKTPFTFGQGTKLEIKR
notes: DVD-Ig; wt hIgG1 + kappa constants
As to B4, the Kd was 0.13 nM, the koff was found to be 0.00013 s⁻¹ and the kon came to 950000 M⁻¹ s⁻¹.

B5: DVD2683 (bispecific antibody, IgG1)
VH: EVQLVESGGGLVQPGGSLRLSCAASGFTFSNYGVTWVRQAPGKGLEWVSMIWADGSTHYASSVKGRFTISRDNSKNTLYLQMNSLRAEDTAVYYCAREWQHGPVAYWGQGTLVTVSSGGGGSGGGGSEVTLRESGPGLVKPTQTLTLTCTLYGFSLSTSDMGVDWIRQPPGKGLEWLAHIWWDDVKRYNPALKSRLTISKDTSKNQVVLKLTSVDPVDTATYYCARTVSSGYIYYAMDYWGQGTLVTVSS
VL: DIQMTQSPSSLSASVGDRVTITCRASQLVSSAVAWYQQKPGKAPKLLIYWASARHTGVPSRFSGSGSGTDFTLTISSLQPEDFATYYCQQHYKTPFTFGQGTKLEIKRGGSGGGGSGDIQMTQSPSSLSASVGDRVTISCRASQDIRNYLNWYQQKPGKAPKLLIFYTSKLHSGVPSRFSGSGSGTDYTLTISSLQPEDIATYYCQQGLTPPLTFGGGTKVEIKR
notes: as for B4
Turning to B5, the Kd worked out at 0.87 nM, the koff worked out at 5.9e-05 s⁻¹ and the kon is 68000 M⁻¹ s⁻¹.

B6: DVD2733 (bispecific antibody, IgG1)
VH: B5 VH with T35E, M50G, S61D, S62T, G65S
VL: B5 VL with R24K, A53T, R54L, K93R
notes: as for B4
As for B6, the Kd amounted to 1.1 nM, the off-rate constant (koff) was determined as 8.6e-05 s⁻¹ and the kon was found to be 79000 M⁻¹ s⁻¹.

B7: DVD2684 (bispecific antibody, IgG1)
VH: EVQLVESGGGLVQPGGSLRLSCAASGFTFSNYGVTWVRQAPGKGLEWVSMIWADGSTHYASSVKGRFTISRDNSKNTLYLQMNSLRAEDTAVYYCAREWQHGPVAYWGQGTLVTVSSASTKGPEVTLRESGPGLVKPTQTLTLTCTLYGFSLSTSDMGVDWIRQPPGKGLEWLAHIWWDDVKRYNPALKSRLTISKDTSKNQVVLKLTSVDPVDTATYYCARTVSSGYIYYAMDYWGQGTLVTVSS
VL: DIQMTQSPSSLSASVGDRVTITCRASQLVSSAVAWYQQKPGKAPKLLIYWASARHTGVPSRFSGSGSGTDFTLTISSLQPEDFATYYCQQHYKTPFTFGQGTKLEIKRTVAAPDIQMTQSPSSLSASVGDRVTISCRASQDIRNYLNWYQQKPGKAPKLLIFYTSKLHSGVPSRFSGSGSGTDYTLTISSLQPEDIATYYCQQGLTPPLTFGGGTKVEIKR
notes: as for B4
As for B7, the Kd was found to be 1.2 nM, the koff was 5.9e-05 s⁻¹ and the kon amounted to 48000 M⁻¹ s⁻¹.

B8: DVD2687 (bispecific antibody, IgG1)
VH: EVQLVESGGGLVQPGGSLRLSCAASGFTFSNYGVTWVRQAPGKGLEWVSMIWADGSTHYASSVKGRFTISRDNSKNTLYLQMNSLRAEDTAVYYCAREWQHGPVAYWGQGTLVTVSSASTKGPSVFPLAPEVTLRESGPGLVKPTQTLTLTCTLYGFSLSTSDMGVDWIRQPPGKGLEWLAHIWWDDVKRYNPALKSRLTISKDTSKNQVVLKLTSVDPVDTATYYCARTVSSGYIYYAMDYWGQGTLVTVSS
VL: B7 VL
notes: as for B4
In the case of B8, the Kd was determined as 0.47 nM, the koff is 5e-05 s⁻¹ and the kon is 110000 M⁻¹ s⁻¹.

B9: DVD2686 (bispecific antibody, IgG1)
VH: B7 VH
VL: DIQMTQSPSSLSASVGDRVTITCRASQLVSSAVAWYQQKPGKAPKLLIYWASARHTGVPSRFSGSGSGTDFTLTISSLQPEDFATYYCQQHYKTPFTFGQGTKLEIKRTVAAPSVFIFPPDIQMTQSPSSLSASVGDRVTISCRASQDIRNYLNWYQQKPGKAPKLLIFYTSKLHSGVPSRFSGSGSGTDYTLTISSLQPEDIATYYCQQGLTPPLTFGGGTKVEIKR
notes: as for B4
With B9, the Kd came out at 0.32 nM, the koff stood at 4.4e-05 s⁻¹ and the kon was found to be 140000 M⁻¹ s⁻¹.

B10: DVD2736 (bispecific antibody, IgG1)
VH: B7 VH with T35E, M50G, S61D, S62T, G65S
VL: B9 VL with R24K, A53T, R54L, K93R
notes: as for B4
For the molecule B10, the Kd amounted to 0.3 nM, the koff is 4.6e-05 s⁻¹ and the kon amounted to 150000 M⁻¹ s⁻¹.

B11: DVD2734 (bispecific antibody, IgG1)
VH: B7 VH with T35E, M50G, S61D, S62T, G65S
VL: B7 VL with R24K, A53T, R54L, K93R
notes: as for B4
Consider B11, for which the Kd was 0.82 nM, the koff stood at 4.8e-05 s⁻¹ and the kon came out at 58000 M⁻¹ s⁻¹.

B12: DVD2737 (bispecific antibody, IgG1)
VH: B8 VH with T35E, M50G, S61D, S62T, G65S
VL: B7 VL with R24K, A53T, R54L, K93R
notes: as for B4
Consider B12, for which the Kd came to 0.5 nM, the koff stood at 6.2e-05 s⁻¹ and the kon was determined as 120000 M⁻¹ s⁻¹.

B13: DVD3174 (bispecific antibody, IgG1)
VH: EVQLVQSGAEVKKPGASVKVSCKASGYTFNNYGIIWVRQAPGQGLEWMGWINTYTGKPTYAQKFQGRVTMTTDTSTSTAYMELSSLRSEDTAVYYCARKLFNTVAVTDNAMDYWGQGTTVTVSSASTKGPEVQLVQSGAEVKKPGASVKVSCKASGYTFTSYWMHWVRQAPGQGLEWIGNINPKGGSNIYNEKFQGRVTMTRDTSISTAYMELSRLRSDDTAVYYCARLDYFGDSFDLWGQGTTVTVSS
VL: DIQMTQSPSSLSASVGDRVTITCRASQDIENYLNWYQQKPGKAPKLLIYYTSRLQSGVPSRFSGSGSGTDFTLTISSLQPEDFATYFCQQGNTQPPTFGQGTKLEIKRTVAAPDIQMTQSPSSLSASVGDRVTITCRASQGIRNYLNWYQQKPGKAPKLLIYYASNLEVGVPSRFSGSGSGTDYTLTISSLQPEDFATYYCQQDNRFPYTFGGGTKVEIKR
notes: as for B4
Take B13: the Kd stood at 0.9 nM, the koff came to 7.7e-05 s⁻¹ and the kon came out at 85000 M⁻¹ s⁻¹.

B14: DVD3176 (bispecific antibody, IgG1)
VH: B13 VH
VL: DIQMTQSPSSLSASVGDRVTITCRASQDIENYLNWYQQKPGKAPKLLIYYTSRLQSGVPSRFSGSGSGTDFTLTISSLQPEDFATYFCQQGNTQPPTFGQGTKLEIKRTVAAPSVFIFPPDIQMTQSPSSLSASVGDRVTITCRASQGIRNYLNWYQQKPGKAPKLLIYYASNLEVGVPSRFSGSGSGTDYTLTISSLQPEDFATYYCQQDNRFPYTFGGGTKVEIKR
notes: as for B4
In the case of B14, the Kd stood at 0.087 nM, the koff stood at 4.8e-05 s⁻¹ and the kon turned out to be 550000 M⁻¹ s⁻¹.
